From the domain aggregation screens of Martell et al. (2025)

assay: soluble fraction after stress (log2 fold change); higher = more stays soluble; pooled small domains, quantitative proteomics; conditions: stress: 50 degC
Summary of the method: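 The measure of aggregation propensity here is the base-two logarithm of the fold change in the soluble amount of each protein after stress. A higher value means more of that protein stays in solution. Stress was applied at 50°C to pooled libraries of small protein domains, read out by high-throughput quantitative proteomics.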

Sequence	soluble fraction (log2)
HMVVRKHDRYYTPEHRKLLMDTYERTNKYPTKQDMSELAKIIGVLPIKILWWYTHRRRQDRRKGEESSSP	-0.0096
HMPTFAEKLHEVRKARDFTQDQLAKEMNVSRQTISHWENGRAVPDIDTIKHLSQVLDYNFLV	0.124
HMRRSVYQANVLDAIKHLVDQNELATTKAIAEYIGDDYQGNVSRAIRELLADRKIKKLPKVGVLQPYEA	-0.285
HMNKDEFLNELKSYLSILEDEEQADILEEYTQHIDMKISTGLSEAEAIRDFGNVSELAAQILEAY	-0.222
HMEVIDQLFKIALTLFDIDKGENNSISQDLVDKVIEQMKTTAPTFIKRELSEDEVKKLRFEIQNHFNV	-0.221
HMGRRERKKLQSRRAIIEAAVTEFKEKGFREASVADIMTRADLGLGTFYNYFQSKEDILMSLLS	-0.0676
HMGGLENNLKQARNRVGLTQSELARQAGISRQAYSSLESGAANPSTEVALRLAQALSERVESLFYLPE	-0.0819
HMYIEKTAYINDTAVNVRKSATTDSDVIKVLALNTEITIIGEENDWYKVKSGNDIGYIAKRLVSDQKKE	0.0858
HMSTSERLKQVMEVKGFNLKTFSEQADIPYRTLQNYILTNREPSAESLAKLHSQLGINLNWLMSGKGEMF	-0.283
HMKSSYSGNFKQNVVEYMHNNHLSATETANHFKLGGGSVVLRWERIYYEEGPQALYEERRGR	-1.7
HMIRQGTKQALLIEMLQRPEGASITEIVEATSWQAHTARGAISGALKKKLGLPITSEKHPERGTVYKL	-0.685
HMRMSQLSRLISILTLLKSKRLLTATELAEKYDVSIRTVYRDIRKLEEAGIPVYTIEGRGYSLMDNYT	-1.6
HMRLLGEPLAGRLKKDVPVVTGRSTESKAIAQFFELRWSHLPDPEARTISVASGRIDFMDVGATRFSLR	0.054
HMAITLEVAKKHLEMWLEAESEVAINQSYTIGGKSFTRANLAEIRKQIEYWSNKVAELENLA	0.0438
HMQEDKVRKLTEMGFAEDQAREALRKHDWDETMALNSL	0.199
HMTYPGSIALVNPKHEAFVQHYVATSGSRGQAAKLAGVTTTTARNLLQDVEATARIRYLNAQQFQ	-0.107
HMYLPLREVVFNALRTAIIHGEFKPGERLMEMHLAKSLGVSRTPVREAMRMLELEGLVVMIPKKGAEVAR	-3.13
HMGMGDALRILFNQAMLIEREQYLQAGAYERNENPVNYANGFKAKTLNTRVGALEVAVPQTRDSAFYPSFL	-0.114
HMEKGWYKLGQDSYYVDDDGKIHKGWLELDGKKYYFDQEGKMVTGTVNIDGKDYTFNEKGELYVS	0.183

Sequence	soluble fraction (log2)
HMRMSPRERKIYQFIENHPGTKSGEMAEKLGIPLPTIKRLLSDMVASKLLQKHGTGAGTNYSIEE	0.201
HMAVQPMDQVKAWLAEDNPADIKLLVPVLQKLDLLDYEQVRGEVADRAGVRKSLLDEAVKGN	0.0999
HMQPVLSDAEVNDLKNIAGGERGYNQLMDWAGNNLTAQDAKSYDDVLATGNKAAISFAIKALMGQYEDAN	0.047
HMTNEPRLTNMGFNKMLIENYKMILEYQDFFIRISTQIGIININGFDLKLGEMTADEVLVTGKIESIDL	0.53
HMGIRQGKVTSTFVNVRSGASTANAKVGELHKGDVVSLIEKVANFWRIGPGQFVSADYIQVLAS	-0.508
HMPQNLQDQLFELILSRYPRRADAVEDLANILHLGKDPVYRRLRGDTFLSPLEISTLALHFRISLDALIV	-2.55
HMQMPDLTGKPRAEAVTTLAALGFTDVKFLDASAGDEPLDYVADQVVRTSPEAGAALASGQQITIYLAT	0.101
HMSEHKFIVPEEFNLKRLDQTVAAQFEKISRTKISKIIKSSLLKVNDKVVTDQSIKIKQDDVITFTEIKDQ	0.0288
HMQASIPQSQKDALAKELQALPPHGRNRVLSTFRQQFNISSEKISEFITTPEHLSFIRSKIAEVESDS	0.0722
HMINFSKNIISDTTSIKEAIEILNIISGRDNHILFVLNDKRQLIGTLSDGDVRRGMLASKTISQSVTEVM	-0.351
HMGFAEFWLAYPKKVGKGEAERKWKTLKPDAGAVLSAVKRQSASEQWRKDGGRYIPNPATWLHQRRWE	-0.0238
HMAQMDDPEMVLHIYNKMIQQRLFDTAVGYSYLKDLQEYLQSIPFIRKEDIFPIPVQHPQVEESLRKAK	-0.367
HMNMAEQGISLDSEAGKARFVSQALPLLKQLPDGVFKQRMLNQLADRVEVTADFIAQQLAQLKAA	-0.079
HMKNMSLGERIKEQRKSSGLSQEKVAEFVGVSRQAVTKWETGQSAPSTENLFKLAEIFGTTVDILLA	0.000199
HMPGLQSVTPAELKIGMYVILPLAWDEHPFLKNHFLIQSEAQINKIRELGTKGIQIDLSKSHP	-0.904
HMPPDLSEAIQKRIEGKTDEALEILRKLYNEYPESTEIITMLGRTLLDAEEYALAAFRLEQALDLGG	-0.569
HMPYLVNGFILEVQSDDNNPVGTLKRRYAVAKNKQGVILLEGEKSFSSNDQILINELKFYIQSNDLKA	-2.43
HMTYKHLTIDEMKRFLSTREDSQSALVQFARVENVVGNRKGKYAVIKKWFLKNYKEEYNAFLS	-0.17
HMVKDLEIETIRLNNLLASDAEEVLKSLGGAKPTYKAVAVPGSNSLVIEGTKADLIKLKSIINALEDGS	0.0941
